Read-outs that look alike come from different tables or passages of the source.
What was measured:
[1] = target: SNAP25 full length (Homo sapiens) (UniProt P60880); details: W indole-dU, X amine-dU, direct ELISA signal
[2] = test system: Negative control random peptide; assay: ELONA; details: W indole, X amine

SNAP25 full length (Homo sapiens), sequence (P60880 whole entry): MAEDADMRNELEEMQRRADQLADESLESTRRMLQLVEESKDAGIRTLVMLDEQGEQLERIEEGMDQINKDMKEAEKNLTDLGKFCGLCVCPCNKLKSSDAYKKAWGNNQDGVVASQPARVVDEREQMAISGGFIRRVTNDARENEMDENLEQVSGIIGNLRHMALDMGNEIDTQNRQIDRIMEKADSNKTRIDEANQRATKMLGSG

TTTTTAAGCCCACAAGCGTTCGGCTCTCATAGATCGTTGACGTGGGCCCATG [PEP 4.19]
binding signal ([1]; Y phenol-dU [19,20,25,27,34,38], negative peptide 0): 0

TTTTTAAGCCCACACGTGTTCGGATCGCACAGTTATTGGCAGTCGTGCCATG [PEP 4.20]
binding signal ([1]; Y phenol-dU [17,19,20,25,34,36,43,46], negative peptide 3): 4

TTTTTAACACGACCGCCCTGTGGGCAACACAGGGATCTGCAGTCGTGCCATG [PEP 1.24]
binding signal ([1]; Y phenol-dU [phenol-dU @19,46, indole-dU @36,38, amine-dU @43], negative peptide 9): 8

TTTTTAACACGACTTGGGTTCGGAAGGCGAACCGCAGCAATGTGGGCCCATG [PEP 1.22]
binding signal ([1]; Y phenol-dU [amine-dU @14, phenol-dU @15,20, indole-dU @19], negative peptide 2): 8

TTTTTAAGCCCACCAGGGTTCGGGAGCCGAACGCCAGCACTGTCGTGCCATG [PEP 3.24]
binding signal ([1]; Y phenol-dU [19 (indole-dU), 20,46 (phenol-dU), 43 (amine-dU)], negative peptide 22): 5

TTTTTAACACGACGTTACTGTGGTCACCACAGGATGAGCTTGTCGTGCCATG [PEP 2.15]
binding signal ([1]; Y phenol-dU [15,16,19,24,35,40,43,46], negative peptide 9): 0

TTTTTAACACGACGTGACTGTGAGAGGCACAGTTTGGGGGCGTGGGCCCATG [PEP 4.15]
binding signal ([1]; Y phenol-dU [15,19,34,35 phenol-dU], negative peptide 7): 4

TTTTTAACACGACGCTCCTGTGACAGCCGAACATCATTGGTGTCGTGCCATG [PEP 1.04]
binding signal ([1]; Y phenol-dU [16 indole-dU, 19 phenol-dU, 34 phenol-dU, 38 indole-dU, 43 amine-dU, 46 phenol-dU], negative peptide 4): 5

TTTTTAACACGACATAGCTGTGACAGGCACAGGTCATGGGAGTCGTGCCATG [PEP 1.19]
binding signal ([1]; Y phenol-dU [phenol-dU @15,19,34,46, amine-dU @43], negative peptide 3): 0

TTTTTAAGCCCACGGGTGTTCGACAGACACAGCAATACATCGTGGGCCCATG [SNAP.03]
binding signal ([2]; Y phenol modified dU [17,19,20,36,40]): 21 ELISA signal

TTTTTAAGCCCACAAAAGTTCGGGCAGCACAGGTCGCTGAGGTCGTGCCATG [PEP 4.14]
binding signal ([1]; Y phenol-dU [19,38 indole-dU, 20,34,46 phenol-dU, 43 amine-dU], negative peptide 15): 2

TTTTTAAGCCCACGCCAGTTCGGTCAACGAACTACGGTGATGTGGGCCCATG [PEP 4.17]
binding signal ([1]; Y phenol-dU [19,20,24,38], negative peptide 0): 0

TTTTTAACACGACAGCCCTGTGCAGGCCGAACGGCGTTGATGTCGTGCCATG [PEP 4.12]
binding signal ([1]; Y phenol-dU [19,46 phenol-dU, 38 indole-dU, 43 amine-dU], negative peptide 3): 0

TTTTTAACACGACGCCAGTTCGAAGGTCACAGTTATTTGGCGTCGTGCCATG [PEP 1.11]
binding signal ([1]; Y phenol-dU [19 indole-dU, 20 phenol-dU, 27 amine-dU, 34 phenol-dU, 36 indole-dU, 38 indole-dU, 43 amine-dU, 46 phenol-dU], negative peptide 11): 4

TTTTTAAGCCCACGGCCGTTCGGCCACCACAGTGTGGCAGCGTCGTGCCATG [PEP 4.13]
binding signal ([1]; Y phenol-dU [19 indole-dU, 20,35,46 phenol-dU, 43 amine-dU], negative peptide 0): 0

TTTTTAAGCCCACTTCACTGTGGCTCGCACAGGCCGATGGGGTCGTGCCATG [PEP 1.23]
binding signal ([1]; Y phenol-dU [amine-dU @14,25,43, phenol-dU @15,19,46, indole-dU @38], negative peptide 0): 0

TTTTTAACACGACGTTACTGTGGTCACCACAGGATGAGCCTGTCGTGCCATG [PEP 2.01]
binding signal ([2]; Y phenol modified dU [15,16,19,24,35,43,46]): 204 ELISA signal

TTTTTAAGCCCACATACGTTCGATGGTCACAGATTGGGCAAGTCGTGCCATG [PEP 2.02]
binding signal ([2]; Y phenol modified dU [15,19,20,24,27,34,35,43,46]): 55 ELISA signal

TTTTTAAGCCCACTTGGCTGTGCACATCACAGAACAAGCAGGTGGGCCCATG [PEP 2.11]
binding signal ([1]; Y phenol-dU [14,15,19,27], negative peptide 2): 0

TTTTTAACACGACAGCACTGTGCACAGCACAGCTCAAGGGTGTGGGCCCATG [PEP 3.10]
binding signal ([1]; Y phenol-dU [phenol-dU@19,34], negative peptide 51): 10

TTTTTAACACGACATCACTGTGGAAGACACAGGACGTGCGTGTCGTGCCATG [PEP 3.22]
binding signal ([1]; Y phenol-dU [15,19,46 (phenol-dU), 43 (amine-dU)], negative peptide 26): 7

TTTTTAACACGACATAGGTTCGCTGGTCACAGAATGTTGTGGTGGGCCCATG [PEP 2.09]
binding signal ([1]; Y phenol-dU [15,19,20,24,27,35,38,40], negative peptide 5): 9

TTTTTAAGCCCACATGCCTGTGGTCATCGAACATTGGGCCGGTCGTGCCATG [PEP 2.13]
binding signal ([1]; Y phenol-dU [15,19,24,27,34,35,43,46], negative peptide 11): 0

TTTTTAAGCCCACGGGGCTGTGAGCAACGAACATTGGCACAGTCGTGCCATG [PEP 4.21]
binding signal ([1]; Y phenol-dU [19,34,35,43,46], negative peptide 8): 0

TTTTTAAGCCCACTGGCCTGTGGTCAGCGAACTGTGCGCTGGTGGGCCCATG [PEP 2.10]
binding signal ([1]; Y phenol-dU [14,19,24,35,40], negative peptide 2): 7

TTTTTAAGCCCACGGGTCTGTGGTCACCGAACGACGTGGCAGTGGGCCCATG [PEP 2.14]
binding signal ([1]; Y phenol-dU [17,19,24], negative peptide 7): 2

TTTTTAACACGACACCACTGTGCCCACCACAGTTCACTGAAGTGGGCCCATG [PEP 3.14]
binding signal ([1]; Y phenol-dU [19,34 (phenol-dU), 38 (indole-dU)], negative peptide 52): 8

TTTTTAAGCCCACGGTGCTGTGGAAGCCACAGTACAATGGAGTGGGCCCATG [PEP 4.22]
binding signal ([1]; Y phenol-dU [16,19,38], negative peptide 3): 5

TTTTTAAGCCCACCCGAGTTCGTCCAGCGAACCACGCGCGTGTCGTGCCATG [PEP 4.11]
binding signal ([2]; Y phenol modified dU [19,20,23,43,46]): 0 ELISA signal

TTTTTAACACGACGTTACTGTGGTCATCACAGGATGAGCCTGTCGTGCCATG [PEP 2.18]
binding signal ([1]; Y phenol-dU [phenol-dU@15,19,35,46, indole-dU@16,24, amine-dU@27,43], negative peptide 9): 0

TTTTTAACACGACATATGTTCGACGGACACAGTGTGTGGCGGTCGTGCCATG [PEP 4.09]
binding signal ([2]; Y phenol modified dU [15,17,19,20,35,43,46]): 0 ELISA signal

TTTTTAACACGACGTCGCTGTGGTCAACGAACAGATACAACGTCGTGCCATG [PEP 2.07]
binding signal ([1]; Y phenol-dU [15,19,24,36,43,46], negative peptide 17): 8

TTTTTAAGCCCACGTTTGTTCGGTGGTCACAGCACGCCACGGTCGTGCCATG [PEP 2.08]
binding signal ([1]; Y phenol-dU [15,16,17,19,20,24,27,43,46], negative peptide 9): 8

TTTTTAACACGACCATCCTGTGCCTCACGAACTCATTGCCCGTCGTGCCATG [PEP 1.02]
binding signal ([2]; Y phenol modified dU [16,19,25,36,43,46]): 15 ELISA signal

TTTTTAACACGACTATTCTGTGAGTCTCGAACTGCGACAACGTGGGCCCATG [PEP 4.18]
binding signal ([1]; Y phenol-dU [14,16,17,19,25,27], negative peptide 4): 10

TTTTTAACACGACCATTCTGTGCCAGCCGAACTCCGTGCTGGTGGGCCCATG [PEP 4.08]
binding signal ([1]; Y phenol-dU [16,17,40 indole-dU, 19 phenol-dU], negative peptide 5): 9

TTTTTAAGCCCACCTCACTGTGCAAGTCACAGGTCGGCACCGTGGGCCCATG [PEP 3.23]
binding signal ([1]; Y phenol-dU [15,19,34 (phenol-dU), 27 (amine-dU)], negative peptide 35): 5

TTTTTAAGCCCACCTGACTGTGGTGGGCACAGTTCGCCATCGTGGGCCCATG [PEP 1.14]
binding signal ([1]; Y phenol-dU [15 phenol-dU, 19 phenol-dU, 24 indole-dU, 34 phenol-dU, 40 indole-dU], negative peptide 5): 2

TTTTTAAGCCCACGACACTGTGGCCAACACAGTACATGCATGTGGGCCCATG [PEP 3.07]
binding signal ([1]; Y phenol-dU [phenol-dU@19], negative peptide 64): 10

TTTTTAACACGACTGCACTGTGAATCTCGAACGCATCGGGAGTCGTGCCATG [PEP 3.15]
binding signal ([1]; Y phenol-dU [14,25,27,43 (amine-dU), 19,46 (phenol-dU), 36 (indole-dU)], negative peptide 39): 9

TTTTTAACACGACGTTACTGTGGTCACCACAGGATGAGGCTGTCGTGCCATG [PEP 2.17]
binding signal ([1]; Y phenol-dU [phenol-dU@15,19,35,46, indole-dU@16,24, amine-dU@43], negative peptide 12): 2

TTTTTAAGCCCACATAGGTTCGGTGGTCACAGTGTGGTGCGGTGGGCCCATG [PEP 2.16]
binding signal ([1]; Y phenol-dU [15,19,20,24,27,35,38], negative peptide 5): 4

TTTTTAACACGACAGCACTGTGGTTCGCGAACCTCAAGCTCGTCGTGCCATG [PEP 3.02]
binding signal ([2]; Y phenol modified dU [19Y,24W,25X,34Y,40W,43X,46Y]): 59 ELISA signal
